What all share (settings): 10 mM Na2HPO4 pH 7.3, 22 °C
Substrate in data set [1]: C=CC=C(O)C(=O)O
Kind of data set: UV steady-state kinetics, enol-keto tautomerization. Format: biochemical, Burkholderia lata.

Substrate in data set [2]: CC(=CC=C(O)C(=O)O)C(=O)O
Described as above. In kind it is biochemical, Burkholderia lata.

Substrate in data set [3]: O=C(O)C(O)=Cc1ccccc1
Kind of data set: purified protein.

Substrate in data set [4]: O=C(O)C=CC=C(O)C(=O)O
Description: purified protein.

B1: fused 4-OT (fused 4-oxalocrotonate tautomerase) (Burkholderia lata) (protein)
chain: PTLEVFLPAGHDDARKAELIARLTGATVDSIGAPIESVRVLLTELPATHIGLGGRSAADGAPPSLPVIVAILIAGRTDEQKRALIAALSETSASVLDAPLQATRVMIKDIPNTDFGIGGQTARALGR
In the case of B1, in data set [1], the Km was 1330 ± 140 µM, the kcat worked out at 170 ± 12 s⁻¹ and the catalytic efficiency (kcat/Km) worked out at 130000 M⁻¹ s⁻¹. For the same protein, in data set [2], the Michaelis-Menten constant (Km) was found to be 147 ± 9 µM, the catalytic constant (kcat) stood at 72 ± 2 s⁻¹ and the specificity constant (kcat/Km) worked out at 490000 M⁻¹ s⁻¹.

B2: unfused 4-OT (Burkholderia lata) (protein)
chain 1: PTLEVFLPAGHDDARKAELIARLTGATVDSIGAPIESVRVLLTELPATHIGLGGRSAADGAPPSL
chain 2: PVIVAILIAGRTDEQKRALIAALSETSASVLDAPLQATRVMIKDIPNTDFGIGGQTARALGR
For B2, in “purified protein [3]”, the Km is 346 ± 28 µM, the kcat was determined as 19.3 ± 0.7 s⁻¹ and the kcat/Km stood at 56000 M⁻¹ s⁻¹. In addition, in the data set “purified protein [4]”, the Michaelis-Menten constant (Km) came out at 148 ± 18 µM, the turnover number (kcat) was 105 ± 6 s⁻¹ and the kcat/Km worked out at 710000 M⁻¹ s⁻¹.

(Values after paper PMC6948721.)
